Test results: the supplement of paper PMC10567573

B1: KLHL14 (parent)
chain: CAVLDDSIYLVGGYSWSMGAYKSS

Variants of: B1
Experiment: protein stability index of a GFP-peptide fusion (GPS, HEK-293T) (PSI 1-6); higher = more stable
Details: c terminus: a fixed tail appended
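Also: lentivirally expressed fusions sorted by FACS into six bins by GFP to DsRed ratio, PSI derived from sequencing read proportions per bin multiplied by bin number.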

Protein stability index, by site and new letter:
S15: N 2.28; G 2.88; R 1.86; K 2.83; V 3.31; M 4.83; F 2.58; H 1.65; Q 2.44; D 2.34; T 2.38; P 2.77; Y 1.87; I 2.56; E 1.03; A 3.83; W 2.25
V3: P 2.58; H 1.67; I 2.56; G 1.48; T 2.94; F 2.85; R 2.4; A 2.03; M 2.9; L 2.21; Q 2.39; S 2.3; Y 1.57; W 2.71; N 2.57; D 1.57; E 2.77
M18: F 2.48; G 1.68; T 2.15; R 2.11; S 1.73; K 1.91; P 1.62; Q 2.67; W 3.11; Y 2.48; E 2.53; C 2.26; L 2.48; H 2.5; I 3.21; D 2.09; N 1.46; A 2.89
D6: P 2.97; Q 1.95; W 3.66; S 2.61; I 3.34; R 3.76; M 4.25; Y 1.86; H 2.9; K 1.35; V 1.97
A20: F 2.88; T 3.02; N 3.33; P 1.33; V 2.02; K 1.11; H 2.31; R 1.74; Q 3.05; D 2.27; W 2.87; Y 2.9; C 2.64
L10: W 3.36; P 1.1; K 2.05; A 1.55; R 2.45; Q 1.23; M 1.95; H 1.59; T 1.96; S 1.83; N 1.98; G 2.23; D 1.94; F 3.26; E 1.33; I 1.68; C 3.76; Y 2.08
Y21: N 2.25; L 2.68; R 2.45; G 1.08; P 2.44; E 1.45; F 3.42; Q 2.35; H 2.64; A 2.91; I 2.99; M 2.65; K 2.14; S 2; D 2.43
S17: T 2.27; Q 2.79; A 3.94; G 2.69; I 1.92; K 2.48; E 2.25; Y 2.9; M 1.49; H 1.98; L 3.11; D 1.52; N 1.53; V 1.96; P 1.54; W 3.53
D5: A 2.24; E 2.7; S 2; I 2.19; V 2.29; P 2.72; Y 1.54; W 3.27; G 1.41; L 3.33; M 4.24; K 3.02; F 3.77; N 4.88
A2: D 1.04; Y 2.32; K 2.85; R 1.3; F 2.84; I 2.13; Q 1.93; P 1.61; S 1.59; W 2.5; H 1.85; E 2.37; N 2.05; L 2.18; M 3.27; G 1.04
G12: C 3.07; H 2.92; L 2.9; F 2.23; N 3.82; M 2.24; S 1.46; K 2.13; D 2.39; R 2.52; V 2.65; P 2.79; Y 1.55; Q 2.89; A 3.1; E 3.21; I 2.47
S7: I 2.49; T 1.52; M 2.99; L 3.32; E 1.99; A 2.04; R 1.84; V 2.46; Q 3.47; G 3.23; N 2.59; P 2.54; F 2.81; H 2.24; Y 3.75; C 3.58
L4: G 1.55; W 1.6; H 2.12; C 1.78; K 2.18; N 3.26; I 2.15; M 2.96; T 2.78; R 2.33; Y 2.19; S 1.49; P 1.74; A 1.36; V 1.79; D 2.19
I8: G 1.22; S 1.73; K 1.77; V 2.52; H 1.93; R 1.64; C 3.23; L 2.23; E 1.13; A 2.44; N 1.65; F 2.55; M 2.62; D 2.22; P 1.93; T 3.78; Q 1.11; W 1.8; Y 2.96
G19: H 3.16; F 3.41; W 3.29; C 3; Q 1.62; L 3.64; V 1.97; I 2.9; K 2.23; T 2.01; R 2.98; E 1.22; S 2.83; N 2.06; Y 3.83; A 2.33; P 1.96
W16: Y 2.02; D 2.14; G 1.95; N 1.89; F 2.87; M 3.09; P 2.38; E 2.53; R 1.78; Q 1.8; V 1.03; S 2.01; H 1.79; A 1.78; K 1.94; T 1.74; I 2.35
Y9: K 1.36; D 2.37; E 2.28; A 1.66; T 2.18; N 1.56; H 2.3; P 2.22; I 1.86; L 3.26; Q 1.62; C 3.86; R 3.35; G 1.28; M 3.37; W 2.43; S 1.51
V11: N 2.2; T 1.83; Q 1.79; S 2.21; E 2.33; P 1.56; I 3.25; D 1.94; Y 2.44; K 2.1; W 1.7; G 1.93; M 3.05; R 1.24; L 1.72; H 1.88; F 1.6; A 1.94; C 1.91
G13: N 2.32; T 3.26; P 1.73; Y 1.73; K 1.51; R 2.08; Q 2.49; M 3.5; V 1.27; S 1.95; D 1.98; I 2.92; A 3.61; F 2.97; C 2.36; H 3.56; W 3.56
Y14: W 2.93; E 1.69; N 1.53; C 2.15; H 1.83; T 1.44; Q 2.03; R 1.74; M 2.42; L 1.86; D 2.23; G 1.2; V 2.19; A 1.55; S 1.83; F 2.66; P 1.91; K 1.73
C1: Q 1.73; Y 1.82; T 1.43; W 2.63; R 2.03; S 1.7
